Percent of the endogenous subunit pulled down data for three substances are collected here from publication PMC7495412.

Holding throughout (assay): co-IP
Assay [1] has as its target α-eGFP (hybrid mouse α-adaptin with eGFP inserted into the hinge region) (mouse) (UniProt P17427).
The target in assay [2] is μ2-eGFP (rat AP2M1 with internal HA tag and eGFP) (rat) (UniProt P84092).
Assay [3] has as its target σ2-eGFP (AP2S1 with C-terminal eGFP) (UniProt P62744).
Chain of UniProt P62744 (P62744 whole entry): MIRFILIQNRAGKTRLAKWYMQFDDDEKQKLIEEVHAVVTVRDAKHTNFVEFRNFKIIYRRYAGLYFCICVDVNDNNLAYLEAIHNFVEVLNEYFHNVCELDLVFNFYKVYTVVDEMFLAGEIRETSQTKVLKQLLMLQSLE

Chain of UniProt P84092 (P84092 whole entry): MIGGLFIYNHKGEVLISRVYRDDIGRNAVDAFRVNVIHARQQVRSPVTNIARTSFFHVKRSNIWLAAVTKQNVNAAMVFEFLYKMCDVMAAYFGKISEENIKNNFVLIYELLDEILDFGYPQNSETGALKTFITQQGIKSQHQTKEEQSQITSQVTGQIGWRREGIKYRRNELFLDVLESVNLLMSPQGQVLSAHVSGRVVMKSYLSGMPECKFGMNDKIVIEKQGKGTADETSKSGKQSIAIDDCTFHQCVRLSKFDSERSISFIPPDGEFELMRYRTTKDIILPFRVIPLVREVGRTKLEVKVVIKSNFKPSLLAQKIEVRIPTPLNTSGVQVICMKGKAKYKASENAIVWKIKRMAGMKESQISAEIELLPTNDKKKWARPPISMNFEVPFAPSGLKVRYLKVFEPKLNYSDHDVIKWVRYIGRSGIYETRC

Take “endogenous σ2 subunit of AP2 (from UniProt P53680 1-142) (natural protein)”: the values for the percent of the endogenous subunit pulled down in assay [1] and in assay [2] were 78.8% and 68%, respectively.

As for “endogenous α subunit of AP2 (α-adaptin) (from UniProt O94973 1-939) (natural protein)”, the figures for the percent of the endogenous subunit pulled down in assay [2] and in assay [3] were 94.1% and 98.7%, respectively.

In the case of “endogenous μ2 subunit of AP2 (from UniProt Q96CW1 1-435) (natural protein)”, the percent of the endogenous subunit pulled down in assay [1] came to 99.3%; in assay [3] it was 79.5%.
